B1: Influenza A/WSN/33 virus M2 protein made in infected cells (natural protein)
chain: MSLLTEVETPIRNEWGCRCNDSSDPLVIAANIIGILHLILWILDRLFFKCIYRRFKYGLKRGPSTEGVPESMREEYRKEQQNAVDVDDGHFVNIELE

How the values were obtained:
[1] = biological target: FLAG-tagged influenza A virus M2 protein (influenza A virus (strain not stated)) (UniProt P05780); experiment: co-IP
c-Myc-tagged cyclin D1 = c-Myc-tagged cyclin D1 (UniProt P24385 1-295); experiment: co-IP; details: partners not purified
Chain of c-Myc-tagged cyclin D1 (P24385 whole entry): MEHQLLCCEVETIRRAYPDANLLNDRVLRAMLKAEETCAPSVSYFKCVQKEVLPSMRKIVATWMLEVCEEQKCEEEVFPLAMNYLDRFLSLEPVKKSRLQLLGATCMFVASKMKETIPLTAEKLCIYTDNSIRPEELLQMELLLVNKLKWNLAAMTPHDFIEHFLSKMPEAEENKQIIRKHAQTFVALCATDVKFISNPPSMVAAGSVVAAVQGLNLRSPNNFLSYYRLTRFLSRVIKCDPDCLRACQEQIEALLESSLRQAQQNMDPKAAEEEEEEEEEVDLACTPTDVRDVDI

| Molecule | percent reduction of M1 co-precipitated with M2 [1] | M2 co-precipitated, relative to cyclin D3 (c-Myc-tagged cyclin D1) |
| --- | --- | --- |
| FLAG- and c-Myc-tagged human cyclin D3 (from UniProt P30281-1 1-292) (natural protein) | 70% | – |
| B1 | – | ~50% |
